A short description of this series: yeast display, Sf9 membrane polyspecificity reagent, FACS + sequencing; frameworks hold sequencing errors. Put shortly: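 Synthetic nanobody libraries on Saccharomyces cerevisiae BJ5465 were galactose-induced for 36–48 hours, stained 1 hour at 4 °C with 10% biotinylated, detergent-solubilized Sf9 membrane reagent and enriched on streptavidin microbeads. FACS then separated cells into low and high (top ~1%) gates by anti-HA (expression) and streptavidin (reagent binding) fluorescence. Genes were colony-PCR amplified, MiSeq 2 × 250 sequenced and CDR-length filtered. A clone's polyreactivity label is that of its gate of origin.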
With “QVQLVESGGGLVQAGGSLRLSCAASGTFSSNAMGWYRQAPGKERELVAAISSTGTTTYYADSVKGRFTISRDNAKNTVYLQMNSLKPEDTAVYYCAKYAYTSVHSWYYYWGQGTQVTVSS”, the “polyreactivity (PSR sort gate)” value was “high polyreactivity”.

In the case of “QVQLVESGGGLVQAGGSLRLSCVPPDSSSLSMLWDGIDRRLGKKGSWLPVLTSRGVGTYYADSVKGRFTISRDNAKNTVYLQMNSLKPEDTAVYYCYARYEVFYRYDYWGQGTQVTVSS”, the “polyreactivity (PSR sort gate)” value was “low polyreactivity”. The result for “QVQLEESGRGLVQAGGSLRLSCAASGFTFNWYAMGWSSQATGKERELVATINSGGSTYYADSVKGRFTISRDNAKNTVYLQMNSLKPEDTAVYYCNRTHRRRYVKSAYNYWGQGTQVTVSS” reads “low polyreactivity”. Under “QVQLVESGGGLVQAGGSLRLSCAASGYIFTSYAMGWYRQAPGKERELVATITTGGSTYYADSVKGRFTISRDNAKNTVYFQMNSLKPEDTAVYYCNAVLHGWYDYWGQGTQVTVSS” stands “low polyreactivity”; under “QVQLVDSGGGLVQAGGSLRLSCAASGLTFRYYAMGWYRQAPGKERELVASISWSGASTYYADSVKGRFTISRDNAKNTVYLQMNSLKPEDTAVYYCNAGYFGSYDYWGQGTQVTVSS”, “high polyreactivity”.

With “QVQLVESGGGLVQAGGSLRLSSAASGRTFNYYPMGWYRQAPGKQWELVAAISDSAGDTYYADSVKGRFTISRDNAKNTVDLQKNSQKPEDPAVYYCAVVRGGRGYPGYDYWGQGTQVTVSS”, the “polyreactivity (PSR sort gate)” value is on record as “low polyreactivity”. As for “QVQLVDSGGGLVQAGGSLRLSCATSGYTFKAYAMVWYRQAPGKERELVAGISRSGGSTYYADSVKGRFTISRDNAKNTVYLQINSLKPEDTAVYYCAADSFSCETVVPSVLEFDYWGQGTQVTLSS”, the “polyreactivity (PSR sort gate)” value is listed as “low polyreactivity”. As to “QVQLEESGGGLVQAGGSLRLSCAASGRIIGGYAMGWYRQAPGKERELVAGIRGGTSTYYADSVKGRFTISRDNAKNTVYLQMNSQKPEDTAVYYCNARSLGRKYDYWGQGTQVTVSS”, the “polyreactivity (PSR sort gate)” value is recorded as “low polyreactivity”. “QVQLVESGGGLVQAGGSLRLSSASSGSIFYVYAMGWYRQAPGKERELVAAIYSGASTYYADSVKGRFTISRDNAKNSVYLQMNSLKPEDTAVYYCADERYFYEYDYWGQGTQVTVSS”: the “polyreactivity (PSR sort gate)” value is “low polyreactivity”. The result for “QVQLVESGGGLVQAGGSLRLSCAASGFYLNAMGWYRQAPGKERELVATITSSATNTYYADSVKGRFTISRDNAKNTVYLQMNSLKPEDTAVYYCNARYTSHTHADGVYLYDYWGQGTQVTVSS” reads “low polyreactivity”; that for “QVQLVESGGGLVQAGGSLRLSCAASGFTFSLYDMGWYRQAPGKERELVAAISSDGSTNYADSVKGRFTISRDNAKNTVYLQMNSLKPEDTAVYYCAADETFLSYWLNYWGQGTQVTLSS”, “low polyreactivity”. Under “QVQLVESGGGLVQAGGSLRLSCSASGIIMDPNAMGWYRQAPGKERELVAGITRSGVSTYYSDSVKGRFTISRDNAKNTVYLLMNSLKPEDTAVYYCAKDRIYGSKGEDEDYWGQGSQVTVSS” stands “low polyreactivity”. As for “QVQLVESGGGVVQAGGSLRLTCAASGLTFNIYSLGWYRQAPGKEREFDATISSSGGGTYYADSVKGRFSISRDHAKNTVYVQLHSLPPEDTAVYYCARDSPDHVTYLHYHYDYWGQGTQVTVSS”, the “polyreactivity (PSR sort gate)” value is “low polyreactivity”.

On to “QVQLVESGGRLVQAGGSLRLLCAASGSTFRYYAMGWYRPAPGKERELLAAISRSGGRTYYADSVKGRFTMSRDNAKTTVYLQMKSLKPEDTAVYDCATRGDGSSWGDYDYWGQGTQVTVSS”, for which the “polyreactivity (PSR sort gate)” value is on record as “high polyreactivity”.

As for “QVQLVESGGGLVQAGGSLRLSCAASGYTFGTYAMGWYRQAPGKERELVATISIGGITYYADSVKGRFTISRDNAKNTVYLQMNSLIPEDTAVYYCAKAVTDPTSRSDPTGDDYWGQGTQVTVSS”, the “polyreactivity (PSR sort gate)” value is “low polyreactivity”.

“QVQLVESGGGLVQAGGSLRLSCAASGITFKFYAMGWYRQAPGKERELVAVITSGGSTYYADSVKGRFTISRDNAKNTVYLQMTSLKPEDTAVFYCASGGNGLYRAYPFYYWGQGTQVTVSS”: the “polyreactivity (PSR sort gate)” value is reported as “high polyreactivity”.

Consider “QVQLVESGGGLVQAGGSLRLSCAASGITFYDYAMGWYRQAPGKERELVAAISFSGSRTYYADSVKGRFTISRDHAKNTVSLQMNSLKPDDTAVYYCAASQASNYKIYDYWGQGTQVTVSS”, for which the “polyreactivity (PSR sort gate)” value is listed as “high polyreactivity”.

On to “QVQLVESGGVLGQAGGSLRLSCAASGFIFSTYTMAWYRPAPGKERDLVAAISRSGGRTYYADSVKGRFTISRDNAKYTVYLQMNSLKPEDTAVYYCNAAKGGRYPDYDYWGQGTQVTVSS”, for which the “polyreactivity (PSR sort gate)” value is “high polyreactivity”.

Consider “QVQLVESGGGLVQAGGSLRLSCAASGSTFYVYAMGWYRPAPGKERELVATISSSGAITYYADSVKGRFTISGDNAKNTVYLQMNSLKPEDTAVYYCARTGSLLSQVWYNYWGQGTQVTVSS”, for which the “polyreactivity (PSR sort gate)” value is “low polyreactivity”.

As to “QVQLVESGGGLVQAGGSLRLSCAASGRTFPYYAMGWYRQAPGKEMELVAAISSSGGRTYYADSVKGRFTISRDNAKNTVYLQMNSLKPEDTAVYYCNAESTYYPSGEDYWGQGTQVTVSS”, the “polyreactivity (PSR sort gate)” value is on record as “low polyreactivity”. For “QVQLVESGGGLVQAGGSLRLSCAASGLTFFGYAMGWYRQAPGKERELVAPISSSGTRTYYADSVKGRFTISRDNAKNTVYLQMNSLKPEDTAVYYCATVRYQEYDYWGQGTQVTVSS”, the “polyreactivity (PSR sort gate)” value is listed as “high polyreactivity”. As for “QVQLVESGGGLVQAGGSLRLSCAASGSTFRFYAMGWYRQAPGKERELVATISSSGGTTYYADSVKGRFTISRDNAKNTVYLQMNSLKPEDTAVYYCAARYYDTRWRYYYWGQGTQVTVSS”, the “polyreactivity (PSR sort gate)” value is on record as “high polyreactivity”.

Turning to “QVQLVESGGGLVQAGGSLRLSCAASGSIFTYYTMGWYRPAPGKERELVAAISNRGGSTYYADSVKGRFTISRDNSKITVYLQMNSLKPEDTAVYYCNKDVGVAVEMAYWGQGTQVTVSS”, the “polyreactivity (PSR sort gate)” value was “high polyreactivity”.

With “QVQLVESGGGLVQAGGSLRLSCAASGRIFYGYTMGWYRQAPGKERELVAAITRSTGSTYYADSVKGRFTISRDNAKNTVYLQMNSLKPEDTAVYYCAKYGYTNTPKSPMDYWGQGTQVTVSS”, the “polyreactivity (PSR sort gate)” value is “low polyreactivity”. As to “QVQLVESGGGLVQAGGSLRLSCAASGITFVYNAMGWYRQAPGKERELVAAIDFGAGSTYYADSVKGRFTISRDNAKNTVYLPMNSLKPEDTAVYYCAAGAARWYWPYDYWGQGTQVTVSS”, the “polyreactivity (PSR sort gate)” value is “low polyreactivity”. The result for “QVQIVESGGGLVQAGGSLRLSCAACGRIFTWNVMGWYRQAPGKEREFVAAITYSGGRTRYADSVKGRFTISRDIAKNTVYLQMNSLKPEDTAFYYCAATSRGTDYWGQGTQVTVSS” reads “high polyreactivity”; that for “QVQLVESGGGLVQAGGSLRLSCAATGSLFLPYGMGWYSQAPGKERELVAAFSRGGGSTYYADSVKGRFTISRDNAKNTVYLQMNSLKPEDTAVYYCAVDNLKSRAQSLDGFDYWGQGTQVTVSS”, “high polyreactivity”; that for “QVQLVESGGGLVQAGGSLRLSCAASGRTFNRNAMGWYRQAPAKERELVAAITSSGGRTYYADSVKGRFTISRDNAKNTVYLQMNSLKPEDTAVYYCNVGPYYPVYLGYLLWYDYWGQGTQVTVSS”, “high polyreactivity”.

For “QVQLVESGGGLVQAGGSLRLSCAASGRIFYGYAMGWYRQAPGKEREFVAAITSGGRTYYADSVKGRFTISRDNAKNTVYLQMNSLKPEDTAVYYCAAAQYYRYGYWGQGTQVTVSS”, the “polyreactivity (PSR sort gate)” value is reported as “high polyreactivity”.

On to “QVQLVESGGGLVQAGGSLRLSCAASGRIFQIYAMGWYRQAPGKERELVAAIRSGSNTNYADSVKGRFTISRDNAKNTVYLQMNSLKPEDTAVYYCAADGWYSAVGVWLEYDYWGQGTQVTVSS”, for which the “polyreactivity (PSR sort gate)” value is on record as “low polyreactivity”.

(Values after the nanobody polyreactivity screen of Harvey et al. (2022).)
